Measurements: the nanobody polyreactivity screen of Harvey et al. (2022)

Assay: yeast display, Sf9 membrane polyspecificity reagent, FACS + sequencing; frameworks hold sequencing errors
Procedure, shortened: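 Galactose induction of a Saccharomyces cerevisiae BJ5465 synthetic nanobody display library ran 36–48 hours. The cells were then stained for 1 hour at 4 °C with 10% biotinylated, detergent-solubilized Sf9 membrane reagent, pulled down on streptavidin microbeads and FACS-sorted into low and high (top ~1%) gates on expression and reagent-binding fluorescence. Labels for polyreactivity follow the gate of origin.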

Sequence	polyreactivity (PSR sort gate)
QVQLVESGGGLVQAGGSLRLSCAASGFIFHHYAMGWYRPAPGKERELVAAISKSGGSTYYADSVKGRFTISRDNAKNTVYLQMNSLKPEDTAVYYCAAYKRSGLKYGHWGQGTQVTVSS	high polyreactivity
QVQLVESGGGLVQAGGSLRLSCAASGVTFYYYAMGWYRQAPGKERELVASITSTDSTTYADSVKGRFTISRDNAKNTVYLQMNRLKPEDTAVYYCNRLYNHWYGGLDYWGQGTQVTVSS	high polyreactivity
QVQLVESGGGLVQAGGSLRLSCAASGRIFWDNAMGWYRQAAGKEWELVAAISDSVVITYYADSVKGRFTISRDNAKNTVYLQMNSLKPEDTAVYYCAADKRGTVYLSSLWMDYWGQGTQVTVSS	low polyreactivity
QVQLVESGGGLVQAGGSLRLSCAASGITFVGNDMGWYRQAPGKERELVATISSSGTRTYYADSVKGRFTISRDNAKNTVYLQMNSLKQEDTAVYYCAARWRSYITYWFDYWGQGTQVTVSS	low polyreactivity
QVQLVESGGGLVQAGGSLRLSCAASGIIFYEYVMGWYRQAPGKERELVAAINRSGGSTYYADSVKGRFTISRDNAKNTVYLQMNSLKPEDTAVYYCAASSTYDGRKYYYWGQGTQVTVSS	high polyreactivity
RVQLVESGGGLVQAGGSLRFSCAASGRIFPNNAMGWSSQAPGKARELVAAISRTGGSTYYADSVKGRFTISRDNAKNTVYLQMNSLKPEDTAVYYCAASHARWSPYYSRYYYWGQGTQVTGSS	high polyreactivity
QVQLVESGGGLVQAGGSLRLSCAASGLTFVWYGKGWYRQATGKERELVAAITRGGSTYYADSVKGRFTISRDNAKNTVYLQMKSLKPEDTAVYYCAARRLERRVRPGYYPYDYWVQGTQVTVSS	high polyreactivity
QVQLVESGGGLVQAGGSLRLSCAASGLTFPDYAMGWYRQAPGKERELVAAITIDGSTYYADSVKGRFTISRDNAKNTVYLQMNSLTPEDTAVYYCNAQVGVPYAMYYWGQGTQVTVSS	low polyreactivity
QVQLVESGGGLVQAGGSLRLSCDASGNTFHTNAMGWYRQAPGKERELVAAITGGGSTYYADSVKGRFTISRDNAKKTVYLQMNSLKPEDTAVYYCNTDVPYGLDVSDTIDYFYWGQGTKVTVSS	low polyreactivity
QVQLVESGGRLVQAGGSLRLTCAASGSTFIIYAIGWSRQAPGQERELVAASTSGGSTYYADSVKGRFRISRDNAKNSVYLQMNSLKQEDTAVYYCAARAWRGSFRDGYWGQGTQVTVSS	high polyreactivity
QVQLVESGGGLVQAGGSLRLSCAASGSIFSSYVMGWYRQAPGKERELVAAITSRGGSTYCADSVKGRFTISRDNAKNTVYFQMKSLKPEDTAVYYCAKGGTTWYWSGYRSIYFRYDYWGQGTQVTVSS	high polyreactivity
QVQLVESGGGLVQAGGSLRLSCASSGSIFKANGMGWYRQAPGKEREFVAAITRSGATTYYADSVKGRFTISRDNAKNTVYLQMNSLKTEDTAVYYCNVKAWRDLYYAGFDYWGQGTQVTVSS	low polyreactivity
QVQLVESGGGLVQAGGSLRLSCAASGSTFFPYAMGWYRQAPGKERELVAAITSGGRTKYADSVKGRFTISRDNAKNTVYLQMNSLKPEDTAVYYCAARGLIKEYGGPYRRFGYWGQGTQVTVSS	high polyreactivity
QVQLVESGGGLVQAGGSLRLSCAASGFTFYTNVMGWYIQAPGKERELVAAINSGGSTNYADSVKGRFTISRDNAKNTVYLQMNSLKPEDTAVYYCNKRGTEIGYDYWGQGTQVTVLS	low polyreactivity
QVQLVESGGGLVQAGGSLRLSCAASGRIFGRYAMGWYRQAPGKEREFVAAISKRGGGTYYADSVKGRFTISRDNAKNTVYLQMNSLKPEDTAVYYCAVDNSPGFDDYDYWGQGTQVTVSS	high polyreactivity
QVQLVESGGGLVQAGGSLRLSCAASGRTFPGYAMGWYRQAPGKERELVAGISYRGGSTYYADSVKGRFTISRDNAKNTVYLQMNSLKPEDTAVYYCNATYGGPYYIQYDYWGQGTQVTVSS	low polyreactivity
QVQPQESGGGLVQAGGSLRLRCAASGTIFAFQTMGSYRQAPGKERELVASITYGSSTNYADSVKGRFTISRDNAKNTVYLQMNSLKPEDTAVFYCAVPQAQYYYDYWGQGTQVTVSS	high polyreactivity
QVQLVESGGGLVQAGGSLRLSCAASGSILFSYAMGWYRQAPGKERELVAAINRGDGNTYADSVKGRFTISRDNAKNTVYLQMNSLKPEDTAVYYCNADLFPGYVSYPEYDYWGQGTQVTVSS	low polyreactivity
QVQLVESRGGLVQAGGSLRLSCAASGGIFINYAMGWYRQAPGKERELVAAISRRGGSTYYADSVKGRFTISRDNAKNTVYLQMNSLKPEDTAVYYCNAVYLRGGMDYWGQGTQVTVSS	high polyreactivity
QVQLVESGGGLVQAGGSLRLSCAASGFTFGGNAMGWYRQAPGKERELVASITSGGSTNYADSVKGRFTISRDNAKNTVYLQMNSLKPEDTAVYYCAAARTGRARRHFDYWGQGTQVTVSS	low polyreactivity
QVQLVESGGGLVQAGGSLRLSCAASGLTFVLYAMGWYRQAPGKERELVAAISKRGGSTNYADSVKGRFTISRDIAKNTVYLQMNSLKPEDTAVYYCAARYPQGGTGKATYVRSRSGYWGQGTKVTVSS	high polyreactivity
QVQLVESGGGLVQAGGCLRLSCAASGFTFWWYAMGWYRQAPGKERELVAAISSGGSTNYADSVKGRFTLSRDNAKNTVYLQMNSLQPEDTAVYYCARRLWYSDRYSARWQYDYWGQVTQVTVSS	high polyreactivity

Sequence	polyreactivity (PSR sort gate)
QVQLVESGGGLVQPGGSLRLSCAASGRIFGRYAMGWYRQAPGKERELVAAISRGGTTNYADSVKGRFTISRDNAKNTVYLQMNSLKPEDTAVYYCAKSGPKRGQYDYWGQGTLVTVSS	high polyreactivity
QVQLVESGGGLVQAGGSLRLSCAASGSIFVNNAMGWYRQAPGKERELVAAISSRSSRTFYADSVKGRFTISRDNAKNTVYLQMNSLKPEDTAVYYCAKPGYLRPSRYDYWGQGTQVTVSS	high polyreactivity
QVQLVESGGGLVQAGGSLRLSCAASGNIFLSYAIGCYRQAPGKEREFVPAIRWSGASTYYADSVKGRFTISRDNAKNTVELQMNSLKPEDTAVYYCGRRALCPRRGIRYDYWGQGSQVTVSS	high polyreactivity
QDQLVESGGGLVQAGVSLRLSCAASGLTFPQYVMGWYRQAPGKQRELDASISSSGGNTYYADSVKGRFTISRDNAKNTVYLQMISLKPEDTAVYYCAAEYIFHYYDIFDYWGQGTQVTVSS	high polyreactivity
QVQLVESGGGLVQAGGSLRLSCAASGSIFNGYVMGLYRQAPGKERELVAAISSGGRTYYADSVKGRFTISRDNAKNTVYLQMNSLKPEDTAVYYCAADIWYFDYDYWGQGTQVTVSS	high polyreactivity
QVQLVESGGGLVQAGGSLRLSCAPSGSIFLQYTMGWYRQAPGKERELVAAITESDGSTYYADSVKGRFTISRDNAKNTVYLQMNSLKPEDTAVYYCAADVVYFKYWDKYDYWGQGTQVTVSS	low polyreactivity
QVQLVESGGGLVQAGGSLRLSCAASGSTFGIYDMGWYRQAPGKERELVAAITSGGDTNYADSVKGRFTISRDNAKNTVYFQKNSLKPEDTAVYYCNARDGGQGNYSARYDYWGQGTQVTVSS	low polyreactivity
QVQLVESGGGLVQAGGSLRLSCAASGLTLTYYPMGLYRQAPGKERELVAAISSSGGSTYYADSVKGRFTISRDNAKNTVYLQMNSLKPEDSAVYDCAATRVSWTGRDDYWGQGTQVTVSS	high polyreactivity
QVQLVESGGGLVQAGGSLRLSCAASGYNFKPNTMGWYRQAPGKERELVAAITRGGRTKYADSVKGRFTISRDNAKNTVYLQMNSLKPEDTAVYYCATRVHKSTDGYDYWGQGTQVTVSS	high polyreactivity
QVQLVESGGGLVQAGGSLRLSCAASGRIFYSYAMGWYRQAPGNERELVAAIPRSGGRTYYADSVKGRFTISRDKAKNTGYLQMNCLKPEDTAVYDCATVWPSISPYPGYNYWGQGTQVTVSS	high polyreactivity
QVQLVESGGGLVQAGGSLRLSCAASGFIFTPYTKGWYRQATGKERELVAAITDGSSTYYADSVKGRFTISRDNAKNTVYLQMNSLKPEDTAVYYCNADTLTTTRRFNPYDYWGQGTQVTVSS	low polyreactivity
QVQLVESGGGLVQAGGSLRLSCAASGRIYRYAMGWYIQAPGKERELVASISYSGGSTYYADSVKGRFTISRDNAKNTVYLQMNSLKPEDTAVYYCAARTRHVHYGYWGQGTQVTVSS	high polyreactivity
QVQLVESGGGLVQAGGSLRLSCAASGITFYQYAMGWYRQAPGKERELVAGINSGGSTNYADSVKGRFTISRDNAKNTVYLQMNSLKPEDTAVYYCAAPWGWARRYRVYGGYYWGQGTQVTVSS	high polyreactivity
QVQLVESGGGLVQAGGSLRLSCASSGSTFYYYAMGWYRPAPGKERELVAAITKSGGSTYYADSVKGRFTISRDNAKNTVYLQMNSLKPEVTAVYYCAAYLRSGYKFDYWGQGTQVTVSS	low polyreactivity
QVQLVESGGGLVQAGGSLRLSCAASGYTFRSNTMGWYRQAPGKERELVAAISGRGSSTYYADSVKGRFTISRDNAKNTVYLQMNSLKPEDTAVYYWNAPYNRATYNYWGQGTQVNVSS	high polyreactivity
QVQHVESGGGLVQAGGSLRLSCAASGRIFRFNAMGWYRKAPGKERELVAAISWRSSNTYYADSVKGRFTISRDNAKNSVYLQMNSLKPEDTAVYYCAASTASSKYRYEYWGQGTQVTVSS	high polyreactivity
QVQLVESGGGLVQAGGSLRLSCAASGSIFAWYGMGWYRQAPGKERELVAAISTAGSTNYADSVKGRFTISRDNAKNSVYLQMNSLKPEDTAVYYCAKKSSWYYPERFDYWGQGTQVTVSS	low polyreactivity
QVQLVESGGGLVPARGSLRLSCAASGNIFFVYDMGWYRQAPGKERELVAAISWSGGSTYADSVKGRFTISRDNGKNNVYLQMNSLKPEDTGVYYCAADVAYVEYDYWGQGSQVTVSS	low polyreactivity
QVQLVESGGGLVQAGGSLRLSCAASGSTFWSYTMGGYRQAPGKERELVAAISRSGGSTYYADSVKGRFTISRDNAKNTVYLQKNSLKPEDTAVYYCAASDRYGSRYYYWGQGTQVTVSS	high polyreactivity
QVQLVETGGGLVQAGGSHRLSCAASGLTFYTYAMGWYRQAPGKERELVAAISTNGGSKYYADSVKGRFTISRDNAKNTVYLQRNCLKPEDTAVYYCAIEGGTYRIFNYWGQGTQVTVSS	low polyreactivity
QVQLVESGGGLVQAGGSLRLSCAASGYIFTSYAMGWYRQAPGKERELVATITTGGSTYYADSVKGRFTISRDNAKNTVYFQMNSLKPEDTAVYYCNAVLHGWYDYWGQGTQVTVSS	low polyreactivity
